How the values were obtained:
Assay in all cases: ELISA, albumin preparation immobilized on 96-well microplate
[1] = molecular target: T1, bovine serum albumin modified with glyoxal (bovine, UniProt P02769 25-607, non-enzymatically modified by incubation with glyoxal (50 mM, 7 days); sites not stated)
T1 construct: also called Glyoxal BSA
Source text: (§1) Each mixed solution of substrate albumin and a protein-modifying substance was immobilized on a 96-well microplate, and was investigated for specificity to the anti-4-HNE antibody (#13-1-1) of the present invention by an ELISA method.

[2] = molecular target: T2, rabbit serum albumin modified with glyoxal (rabbit, UniProt P49065 25-608, non-enzymatically modified by incubation with glyoxal (50 mM, 7 days); sites not stated)
T2 construct: also called Glyoxal Rabbit-SA
T2 sequence (P49065 25-608 limits assumed): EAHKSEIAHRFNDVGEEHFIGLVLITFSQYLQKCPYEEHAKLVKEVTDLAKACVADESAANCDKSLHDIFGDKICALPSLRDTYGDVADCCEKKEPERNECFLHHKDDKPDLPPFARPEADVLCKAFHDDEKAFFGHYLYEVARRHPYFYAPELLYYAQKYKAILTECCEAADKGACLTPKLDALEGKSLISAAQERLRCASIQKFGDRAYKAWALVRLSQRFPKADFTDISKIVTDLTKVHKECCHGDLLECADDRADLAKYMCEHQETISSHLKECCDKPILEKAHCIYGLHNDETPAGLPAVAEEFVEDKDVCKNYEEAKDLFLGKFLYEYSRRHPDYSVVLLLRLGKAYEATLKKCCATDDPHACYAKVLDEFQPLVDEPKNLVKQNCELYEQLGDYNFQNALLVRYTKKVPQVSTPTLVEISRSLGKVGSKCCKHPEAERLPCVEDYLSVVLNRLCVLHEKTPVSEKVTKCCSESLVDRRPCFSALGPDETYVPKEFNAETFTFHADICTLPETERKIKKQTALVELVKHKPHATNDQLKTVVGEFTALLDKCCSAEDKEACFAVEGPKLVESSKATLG
Source text: as §1

[3] = molecular target: T3, rabbit serum albumin modified with crotonaldehyde (rabbit, UniProt P49065 25-608, non-enzymatically modified by incubation with crotonaldehyde (CRA, 50 mM, 7 days); sites not stated)
T3 construct: also called CRA Rabbit-SA
T3 sequence (P49065 25-608 limits assumed): as above
Source text: as §1

[4] = molecular target: T4, rat serum albumin modified with malondialdehyde (rat, UniProt P02770 25-608, non-enzymatically modified by incubation with malondialdehyde (MDA, 50 mM, 7 days); sites not stated)
T4 construct: also called MDA Rat-SA
T4 sequence (P02770 25-608 limits assumed): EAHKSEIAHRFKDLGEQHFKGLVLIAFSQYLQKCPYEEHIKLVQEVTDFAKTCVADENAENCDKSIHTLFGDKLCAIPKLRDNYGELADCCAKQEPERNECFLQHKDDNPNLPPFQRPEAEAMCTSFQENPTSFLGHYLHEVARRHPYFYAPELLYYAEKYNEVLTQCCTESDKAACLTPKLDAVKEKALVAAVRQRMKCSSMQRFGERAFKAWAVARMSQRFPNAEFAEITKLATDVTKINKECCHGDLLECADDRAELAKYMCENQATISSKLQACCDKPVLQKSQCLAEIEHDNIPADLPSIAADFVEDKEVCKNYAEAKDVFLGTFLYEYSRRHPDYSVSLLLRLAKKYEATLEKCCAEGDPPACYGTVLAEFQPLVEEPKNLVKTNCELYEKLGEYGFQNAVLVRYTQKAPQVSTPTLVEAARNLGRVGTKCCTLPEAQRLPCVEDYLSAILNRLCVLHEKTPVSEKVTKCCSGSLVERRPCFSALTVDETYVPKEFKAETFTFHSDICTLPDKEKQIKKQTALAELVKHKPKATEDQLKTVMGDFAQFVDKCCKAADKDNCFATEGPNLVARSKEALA
Source text: as §1

[5] = molecular target: T5, bovine serum albumin modified with methylglyoxal (bovine, UniProt P02769 25-607, non-enzymatically modified by incubation with methylglyoxal (50 mM, 7 days); sites not stated)
T5 construct: also called Methylglyoxal BSA
T5 sequence (P02769 25-607 limits assumed): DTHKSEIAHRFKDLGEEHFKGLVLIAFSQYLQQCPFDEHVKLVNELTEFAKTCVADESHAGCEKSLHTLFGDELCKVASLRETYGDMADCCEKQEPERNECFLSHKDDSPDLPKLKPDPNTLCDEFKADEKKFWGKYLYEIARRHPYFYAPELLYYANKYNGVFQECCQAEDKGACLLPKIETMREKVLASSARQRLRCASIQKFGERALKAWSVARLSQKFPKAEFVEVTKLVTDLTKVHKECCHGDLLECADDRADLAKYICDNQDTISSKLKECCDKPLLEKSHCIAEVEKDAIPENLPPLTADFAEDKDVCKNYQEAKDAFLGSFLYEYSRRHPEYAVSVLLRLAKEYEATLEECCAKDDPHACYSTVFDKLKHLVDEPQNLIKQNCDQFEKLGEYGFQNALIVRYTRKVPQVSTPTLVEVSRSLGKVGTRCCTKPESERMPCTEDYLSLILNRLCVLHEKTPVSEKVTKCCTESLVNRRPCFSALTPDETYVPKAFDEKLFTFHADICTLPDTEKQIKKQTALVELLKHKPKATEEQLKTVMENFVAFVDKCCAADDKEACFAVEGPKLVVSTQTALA
Source text: as §1

[6] = molecular target: T6, rabbit serum albumin modified with malondialdehyde (rabbit, UniProt P49065 25-608, non-enzymatically modified by incubation with malondialdehyde (MDA, 50 mM, 7 days); sites not stated)
T6 construct: also called MDA Rabbit-SA
T6 sequence (P49065 25-608 limits assumed): as the sequence (P49065 25-608 limits assumed) above
Source text: as §1

[7] = molecular target: T7, human serum albumin modified with D-glucose (human, UniProt P02768 25-609, non-enzymatically modified by incubation with D-glucose (250 mM, 3 weeks); sites not stated)
T7 construct: also called D-glucose HSA
T7 sequence (P02768 25-609 limits assumed): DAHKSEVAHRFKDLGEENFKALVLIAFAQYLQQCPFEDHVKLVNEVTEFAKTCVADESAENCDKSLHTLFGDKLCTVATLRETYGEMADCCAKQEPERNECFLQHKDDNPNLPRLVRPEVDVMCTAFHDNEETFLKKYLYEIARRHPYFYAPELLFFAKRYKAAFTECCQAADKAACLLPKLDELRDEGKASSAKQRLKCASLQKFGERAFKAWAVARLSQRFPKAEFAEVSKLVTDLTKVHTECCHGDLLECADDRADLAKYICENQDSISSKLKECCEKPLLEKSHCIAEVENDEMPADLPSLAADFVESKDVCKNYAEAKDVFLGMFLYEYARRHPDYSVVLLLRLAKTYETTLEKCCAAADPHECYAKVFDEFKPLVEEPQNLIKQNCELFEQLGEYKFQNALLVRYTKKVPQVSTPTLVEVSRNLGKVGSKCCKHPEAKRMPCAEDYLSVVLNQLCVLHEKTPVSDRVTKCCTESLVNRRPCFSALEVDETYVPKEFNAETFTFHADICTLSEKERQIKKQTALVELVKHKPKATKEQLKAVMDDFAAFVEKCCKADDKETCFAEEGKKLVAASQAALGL
Source text: as §1

[8] = molecular target: T8, bovine serum albumin, unmodified (bovine, UniProt P02769 25-607)
T8 construct: also called BSA
T8 sequence (P02769 25-607 limits assumed): as the sequence (P02769 25-607 limits assumed) above
Source text: as §1

[9] = molecular target: T9, rabbit serum albumin modified with glycolaldehyde (rabbit, UniProt P49065 25-608, non-enzymatically modified by incubation with glycolaldehyde (50 mM, 7 days); sites not stated)
T9 construct: also called Glycolaldehyde Rabbit-SA
T9 sequence (P49065 25-608 limits assumed): as the sequence (P49065 25-608 limits assumed) above
Source text: as §1

[10] = molecular target: T10, human serum albumin modified with methylglyoxal (human, UniProt P02768 25-609, non-enzymatically modified by incubation with methylglyoxal (50 mM, 7 days); sites not stated)
T10 construct: also called Methylglyoxal HSA
T10 sequence (P02768 25-609 limits assumed): as the sequence (P02768 25-609 limits assumed) above
Source text: as §1

[11] = molecular target: T11, bovine serum albumin modified with D-glucose (bovine, UniProt P02769 25-607, non-enzymatically modified by incubation with D-glucose (250 mM, 3 weeks); sites not stated)
T11 construct: also called D-glucose BSA
T11 sequence (P02769 25-607 limits assumed): as the sequence (P02769 25-607 limits assumed) above
Source text: as §1

[12] = molecular target: T12, human serum albumin modified with glyceraldehyde (human, UniProt P02768 25-609, non-enzymatically modified by incubation with glyceraldehyde (50 mM, 7 days); sites not stated)
T12 construct: also called Glyceraldehyde HSA
T12 sequence (P02768 25-609 limits assumed): as the sequence (P02768 25-609 limits assumed) above
Source text: as §1

[13] = molecular target: T13, bovine serum albumin modified with glycolaldehyde (bovine, UniProt P02769 25-607, non-enzymatically modified by incubation with glycolaldehyde (50 mM, 7 days); sites not stated)
T13 construct: also called Glycolaldehyde BSA
T13 sequence (P02769 25-607 limits assumed): as the sequence (P02769 25-607 limits assumed) above
Source text: as §1

[14] = molecular target: T14, rat serum albumin modified with glyceraldehyde (rat, UniProt P02770 25-608, non-enzymatically modified by incubation with glyceraldehyde (50 mM, 7 days); sites not stated)
T14 construct: also called Glyceraldehyde Rat-SA
T14 sequence (P02770 25-608 limits assumed): as the sequence (P02770 25-608 limits assumed) above
Source text: as §1

[15] = molecular target: T15, rabbit serum albumin, unmodified (rabbit, UniProt P49065 25-608)
T15 construct: also called Rabbit-SA
T15 sequence (P49065 25-608 limits assumed): as the sequence (P49065 25-608 limits assumed) above
Source text: as §1

[16] = molecular target: T16, rabbit serum albumin modified with glyceraldehyde (rabbit, UniProt P49065 25-608, non-enzymatically modified by incubation with glyceraldehyde (50 mM, 7 days); sites not stated)
T16 construct: also called Glyceraldehyde Rabbit-SA
T16 sequence (P49065 25-608 limits assumed): as above
Source text: as §1

[17] = molecular target: T17, human serum albumin, unmodified (human, UniProt P02768 25-609)
T17 construct: also called HSA
T17 sequence (P02768 25-609 limits assumed): as the sequence (P02768 25-609 limits assumed) above
Source text: as §1

[18] = molecular target: T18, rat serum albumin modified with glycolaldehyde (rat, UniProt P02770 25-608, non-enzymatically modified by incubation with glycolaldehyde (50 mM, 7 days); sites not stated)
T18 construct: also called Glycolaldehyde Rat-SA
T18 sequence (P02770 25-608 limits assumed): as the sequence (P02770 25-608 limits assumed) above
Source text: as §1

[19] = molecular target: T19, rat serum albumin modified with D-glucose (rat, UniProt P02770 25-608, non-enzymatically modified by incubation with D-glucose (250 mM, 3 weeks); sites not stated)
T19 construct: also called D-glucose Rat-SA
T19 sequence (P02770 25-608 limits assumed): as above
Source text: as §1

[20] = molecular target: T20, rat serum albumin, unmodified (rat, UniProt P02770 25-608)
T20 construct: also called Rat-SA
T20 sequence (P02770 25-608 limits assumed): as above
Source text: as §1

[21] = molecular target: T21, rat serum albumin modified with glyoxal (rat, UniProt P02770 25-608, non-enzymatically modified by incubation with glyoxal (50 mM, 7 days); sites not stated)
T21 construct: also called Glyoxal Rat-SA
T21 sequence (P02770 25-608 limits assumed): as above
Source text: as §1

[22] = molecular target: T22, human serum albumin modified with malondialdehyde (human, UniProt P02768 25-609, non-enzymatically modified by incubation with malondialdehyde (MDA, 50 mM, 7 days); sites not stated)
T22 construct: also called MDA HSA
T22 sequence (P02768 25-609 limits assumed): as the sequence (P02768 25-609 limits assumed) above
Source text: as §1

[23] = molecular target: T23, human serum albumin modified with glyoxal (human, UniProt P02768 25-609, non-enzymatically modified by incubation with glyoxal (50 mM, 7 days); sites not stated)
T23 construct: also called Glyoxal HSA
T23 sequence (P02768 25-609 limits assumed): as above
Source text: as §1

[24] = molecular target: T24, rabbit serum albumin modified with D-glucose (rabbit, UniProt P49065 25-608, non-enzymatically modified by incubation with D-glucose (250 mM, 3 weeks); sites not stated)
T24 construct: also called D-glucose Rabbit-SA
T24 sequence (P49065 25-608 limits assumed): as the sequence (P49065 25-608 limits assumed) above
Source text: as §1

[25] = molecular target: T25, bovine serum albumin modified with glyceraldehyde (bovine, UniProt P02769 25-607, non-enzymatically modified by incubation with glyceraldehyde (50 mM, 7 days); sites not stated)
T25 construct: also called Glyceraldehyde BSA
T25 sequence (P02769 25-607 limits assumed): as the sequence (P02769 25-607 limits assumed) above
Source text: as §1

[26] = molecular target: T26, human serum albumin modified with glycolaldehyde (human, UniProt P02768 25-609, non-enzymatically modified by incubation with glycolaldehyde (50 mM, 7 days); sites not stated)
T26 construct: also called Glycolaldehyde HSA
T26 sequence (P02768 25-609 limits assumed): as the sequence (P02768 25-609 limits assumed) above
Source text: as §1

[27] = molecular target: T27, human serum albumin modified with crotonaldehyde (human, UniProt P02768 25-609, non-enzymatically modified by incubation with crotonaldehyde (CRA, 50 mM, 7 days); sites not stated)
T27 construct: also called CRA HSA
T27 sequence (P02768 25-609 limits assumed): as above
Source text: as §1

[28] = molecular target: T28, rat serum albumin modified with crotonaldehyde (rat, UniProt P02770 25-608, non-enzymatically modified by incubation with crotonaldehyde (CRA, 50 mM, 7 days); sites not stated)
T28 construct: also called CRA Rat-SA
T28 sequence (P02770 25-608 limits assumed): as the sequence (P02770 25-608 limits assumed) above
Source text: as §1

[29] = molecular target: T29, bovine serum albumin modified with crotonaldehyde (bovine, UniProt P02769 25-607, non-enzymatically modified by incubation with crotonaldehyde (CRA, 50 mM, 7 days); sites not stated)
T29 construct: also called CRA BSA
T29 sequence (P02769 25-607 limits assumed): as the sequence (P02769 25-607 limits assumed) above
Source text: as §1

[30] = molecular target: T30, bovine serum albumin modified with malondialdehyde (bovine, UniProt P02769 25-607, non-enzymatically modified by incubation with malondialdehyde (MDA, 50 mM, 7 days); sites not stated)
T30 construct: also called MDA BSA
T30 sequence (P02769 25-607 limits assumed): as above
Source text: as §1

[31] = molecular target: T31, rabbit serum albumin modified with methylglyoxal (rabbit, UniProt P49065 25-608, non-enzymatically modified by incubation with methylglyoxal (50 mM, 7 days); sites not stated)
T31 construct: also called Methylglyoxal Rabbit-SA
T31 sequence (P49065 25-608 limits assumed): as the sequence (P49065 25-608 limits assumed) above
Source text: as §1

[32] = molecular target: T32, rat serum albumin modified with methylglyoxal (rat, UniProt P02770 25-608, non-enzymatically modified by incubation with methylglyoxal (50 mM, 7 days); sites not stated)
T32 construct: also called Methylglyoxal Rat-SA
T32 sequence (P02770 25-608 limits assumed): as the sequence (P02770 25-608 limits assumed) above
Source text: as §1

[33] = molecular target: rat serum albumin protein adduct with 4-HNE (rat) (UniProt P02770)
rat serum albumin protein adduct with 4-HNE (rat), sequence (P02770 25-608 limits assumed, form in doubt): as the sequence (P02770 25-608 limits assumed) above

[34] = molecular target: human serum albumin protein adduct with 4-HNE (human) (UniProt P02768)
human serum albumin protein adduct with 4-HNE (human), sequence (P02768 25-609 limits assumed, form in doubt): as the sequence (P02768 25-609 limits assumed) above

[35] = molecular target: rabbit serum albumin protein adduct with 4-HNE (rabbit) (UniProt P49065)
rabbit serum albumin protein adduct with 4-HNE (rabbit), sequence (P49065 25-608 limits assumed, form in doubt): as the sequence (P49065 25-608 limits assumed) above

[36] = molecular target: bovine serum albumin protein adduct with 4-HNE (bovine) (UniProt P02769)
bovine serum albumin protein adduct with 4-HNE (bovine), sequence (P02769 25-607 limits assumed, form in doubt): as the sequence (P02769 25-607 limits assumed) above

T1 sequence (P02769 25-607 limits assumed): as above

B1: anti-4-HNE monoclonal antibody (#13-1-1) (antibody, V domains shown)
VH: EVKLLASGGGLVQPGGSMRLSCAASGFTFTDFYMYWIRQPAGKAPEWLGFIRNKANGYTTEYNPSVKGRFTISRDNTQNMLYLQMNTLRAEDTATYYCALGYYGYNYNWFAYWGQGTLVTVSS
VL: ETVMTQSPTSMSTSIGERVTLNCRASQSVGINVDWYQQTPGQSPKMLIYGASNRHTGVPDRFTGSGFGRDFTLTISNMEAEDLGVYYCLQYASIPYTFGAGTKLELKR
notes: Rat hybridoma monoclonal antibody; also called anti-4-HNE antibody (#13-1-1); monoclonal antibody produced from Rat hybridoma #13-1-1
ELISA reading (name and unit not given) [1]: 0.066
ELISA reading (name and unit not given) [2]: 0.073
ELISA reading (name and unit not given) [3]: 0.074
ELISA reading (name and unit not given) [4]: 0.08
ELISA reading (name and unit not given) [5]: 0.073
ELISA reading (name and unit not given) [6]: 0.07
ELISA reading (name and unit not given) [7]: 0.068
ELISA reading (name and unit not given) [8]: 0.15
ELISA reading (name and unit not given) [9]: 0.067
ELISA reading (name and unit not given) [10]: 0.069
ELISA reading (name and unit not given) [11]: 0.081
ELISA reading (name and unit not given) [12]: 0.068
ELISA reading (name and unit not given) [13]: 0.071
ELISA reading (name and unit not given) [14]: 0.069
ELISA reading (name and unit not given) [15]: 0.114
ELISA reading (name and unit not given) [16]: 0.069
ELISA reading (name and unit not given) [17]: 0.118
ELISA reading (name and unit not given) [18]: 0.07
ELISA reading (name and unit not given) [19]: 0.076
ELISA reading (name and unit not given) [20]: 0.088
ELISA reading (name and unit not given) [21]: 0.073
ELISA reading (name and unit not given) [22]: 0.065
ELISA reading (name and unit not given) [23]: 0.065
ELISA reading (name and unit not given) [24]: 0.069
ELISA reading (name and unit not given) [25]: 0.07
ELISA reading (name and unit not given) [26]: 0.071
ELISA reading (name and unit not given) [27]: 0.077
ELISA reading (name and unit not given) [28]: 0.141
ELISA reading (name and unit not given) [29]: 0.156
ELISA reading (name and unit not given) [30]: 0.074
ELISA reading (name and unit not given) [31]: 0.072
ELISA reading (name and unit not given) [32]: 0.074
ELISA reading (name and unit not given) [33]: 1.37
ELISA reading (name and unit not given) [34]: 0.956
ELISA reading (name and unit not given) [35]: 0.663
ELISA reading (name and unit not given) [36]: 1.11

Reference: US20250026860A1 (NATIONAL UNIVERSITY CORPORATION OKAYAMA UNIVERSITY, published 2025)
